Assay [1] has as its target SARS-CoV-2 nucleocapsid protein (SARS-CoV-2, UniProt P0DTC9 1-419). Kind of assay: lateral flow screen with nucleocapsid protein, capture antibody.
Assay [2] concerns the target T1, SARS-CoV S1 monomer (SARS-CoV, UniProt P59594 14-667).
T1 construct: domain: S1
Kind of assay: SPR (Carterra LSA).

B1: Ab-89 (antibody, V domains shown)
VH: EVQLVESGGGLVQPGGSLRLSCAASGIPSTLRAMGWFRQAPGKEREFVALINRSGGSQFYADSVKGRFTISADNSKNTAYLQMNSLKPEDTAVYYCAIGRGSWGQGTLVTVSS
On to B1, for which the binding result in assay [1] is “binds”.

B2: Ab-7 (antibody, V domains shown)
VH: EVQLLESGGGLVQPGGSLRLSCAASGFTFSDFAMAWVRQAPGKGLEWVSAISGSGDITYYADSVKGRFTISRDNSKNTLYLQMNSLRAEDTAVYYCAREADGLHSPWHFDLWGQGTLVTVSS
VL: DIQMTQSPSSLSASVGDRVTITCRASQSIHTYLNWYQQKPGKAPKLLIYAASALASGVPSRFSGSGSGTDFTLTISSLQPEDFATYYCQQSYSAPPYTFGQGTKVEIK
For the molecule B2, in assay [2], the binding result is “binds”.

The values are drawn from patent US20220206001A1 (TWIST BIOSCIENCE, published 2022).
